The target in this assay is T1, full length human Tau (not phosphorylated) (human, UniProt P10636 1-758).
T1 construct: Human Tau isoform F, 441 residues; also called full length tau; Tau protein
Put plainly: Western blot on recombinant Tau, all antibodies 1 ug/ml. (In western blotting, separated proteins are transferred to a membrane and probed.)

T1 sequence (P10636 other isoform, or with tags, fused parts or gaps limits assumed): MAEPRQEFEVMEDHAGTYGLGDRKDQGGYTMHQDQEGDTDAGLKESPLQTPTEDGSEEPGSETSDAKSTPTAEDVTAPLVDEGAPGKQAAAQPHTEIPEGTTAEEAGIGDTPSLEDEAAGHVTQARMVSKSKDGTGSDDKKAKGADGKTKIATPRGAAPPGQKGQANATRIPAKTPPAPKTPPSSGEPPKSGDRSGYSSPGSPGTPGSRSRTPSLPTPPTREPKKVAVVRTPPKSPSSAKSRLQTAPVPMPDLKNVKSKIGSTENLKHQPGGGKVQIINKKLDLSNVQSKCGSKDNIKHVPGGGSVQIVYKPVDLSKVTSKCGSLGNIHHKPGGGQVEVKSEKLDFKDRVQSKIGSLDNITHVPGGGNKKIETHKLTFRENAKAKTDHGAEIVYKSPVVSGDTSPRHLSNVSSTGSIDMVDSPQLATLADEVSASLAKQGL

B1: VH32/VL21 (antibody, V domains shown)
VH: EVQVLESGGGLVQPGGSLRLSCAVSGFSLSSNAINWVRQAPGKGLEWVGYIAVSGNTYYASWAKGRFTISRDNSKNTVYLQMNSLRAEDTAVYYCGKSNIWGQGTLVTVSS
VL: AQVMTQSPSSLSASVGDRVTITCRSSQSVRTNKLAWFQQKPGQPPKRLIYSASTLDFGVPSRFSGSGSGTEFTLTISSLQPEDFATYYCLGYFDSSADIVAFGGGTKVEIK
As to B1, the binding result is listed as “no binding (tested: 1 ug/ml)”.

B2: VH32/VL22 (antibody, V domains shown)
VH: EVQVLESGGGLVQPGGSLRLSCAVSGFSLSSNAINWVRQAPGKGLEWVGYIAVSGNTYYASWAKGRFTISRDNSKNTVYLQMNSLRAEDTAVYYCGKSNIWGQGTLVTVSS
VL: AQVMTQSPSSLSASVGDRVTITCRSSQSVRTNRLAWFQQKPGQPPKRLIYSASTLDYGVPSRFSGSGSGTEFTLTISSLQPEDFATYYCLGYFDSSADIVAFGGGTKVEIK
In the case of B2, the binding result is “no binding (tested: 1 ug/ml)”.
